Data on three substances can be found in patent publication US20200354411A1, “Chimeric Molecule for Targeting c-Myc in Cells” (priority 2017, published 2020).

For this experiment, the target named is c-Myc (UniProt P01106). Description: cell-based or functional assay.
Sequence of c-Myc (P01106 whole entry): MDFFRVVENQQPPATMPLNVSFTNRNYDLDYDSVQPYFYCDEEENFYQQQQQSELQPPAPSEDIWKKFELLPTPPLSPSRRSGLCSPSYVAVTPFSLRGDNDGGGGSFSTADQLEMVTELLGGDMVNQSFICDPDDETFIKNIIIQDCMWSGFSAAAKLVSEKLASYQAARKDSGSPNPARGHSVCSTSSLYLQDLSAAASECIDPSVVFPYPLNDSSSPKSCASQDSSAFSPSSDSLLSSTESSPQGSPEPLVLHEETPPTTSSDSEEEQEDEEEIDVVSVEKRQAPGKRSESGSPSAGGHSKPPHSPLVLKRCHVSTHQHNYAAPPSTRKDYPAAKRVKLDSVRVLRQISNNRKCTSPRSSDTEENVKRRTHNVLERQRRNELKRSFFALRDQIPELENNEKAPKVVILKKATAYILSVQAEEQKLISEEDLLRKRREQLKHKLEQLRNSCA

In turn, “CAD-H1 (Cadherin cell targeting peptide fused to H1)” displayed a decrease in Myc reporter activity at 150 µM of less than 75% and a luciferase controlled by E-Box, A431 cells, 6 hours of 75 µM.

The substance “Int-H1 (Antenapedia cell targeting peptide fused to H1)” returned a decrease in Myc reporter activity at 400 µM of less than 75% and a luciferase controlled by E-Box, A431 cells, 6 hours of 200 µM.

Consider “Tat-H1 (TAT cell targeting peptide fused to H1)”, for which the luciferase controlled by E-Box, A431 cells, 6 hours came to 500 µM.
